Experimental findings from patent US20250042995A1 (AKESO BIOPHARMA, published 2025) are described below.

Positions count from the first letter of the chain named.

Assay [1] concerns the target T1, human LAG3 (full length) expressed on cells (human, UniProt P18627 23-525).
T1 construct: whole, on cells; also called huLAG3FL
T1 sequence (looked up): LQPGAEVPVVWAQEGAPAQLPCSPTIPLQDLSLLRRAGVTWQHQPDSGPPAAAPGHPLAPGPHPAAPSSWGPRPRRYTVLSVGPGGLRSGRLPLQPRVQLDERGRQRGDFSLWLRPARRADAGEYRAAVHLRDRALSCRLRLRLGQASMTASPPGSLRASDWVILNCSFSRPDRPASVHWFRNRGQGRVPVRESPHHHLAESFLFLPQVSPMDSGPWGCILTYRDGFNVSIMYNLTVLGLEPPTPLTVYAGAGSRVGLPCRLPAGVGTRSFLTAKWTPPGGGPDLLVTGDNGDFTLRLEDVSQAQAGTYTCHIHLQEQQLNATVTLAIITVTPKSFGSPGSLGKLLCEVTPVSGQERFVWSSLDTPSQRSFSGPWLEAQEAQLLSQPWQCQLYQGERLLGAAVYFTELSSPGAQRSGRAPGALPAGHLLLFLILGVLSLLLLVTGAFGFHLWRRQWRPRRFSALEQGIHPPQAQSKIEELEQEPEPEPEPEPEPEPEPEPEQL
Description: flow cytometry on 293T-LAG3 cells. As to the method:
After centrifugation and washing several times with 1% PBSA, 100 μL of FITC goat anti-human IgG (purchased from Jackson, Cat. No. 109-095-098) (diluted at a 1:500 ratio) was added into each tube, and the mixture was incubated on ice in the dark for 40 min. After washing once with 1% PBSA, 200 μL of 1% PBSA was added to resuspend the cells. Fluorescence signals were detected with FITC channel on a flow cytometer.
(In general: In flow cytometry, cells or beads pass a laser one at a time.)

Assay [2] addresses T2, human LAG3-mFc (human, UniProt P18627 23-450).
T2 construct: also called antigen human LAG3-mFc; not shown: mFc: Fc protein fragment of mouse IgG
T2 sequence (looked up): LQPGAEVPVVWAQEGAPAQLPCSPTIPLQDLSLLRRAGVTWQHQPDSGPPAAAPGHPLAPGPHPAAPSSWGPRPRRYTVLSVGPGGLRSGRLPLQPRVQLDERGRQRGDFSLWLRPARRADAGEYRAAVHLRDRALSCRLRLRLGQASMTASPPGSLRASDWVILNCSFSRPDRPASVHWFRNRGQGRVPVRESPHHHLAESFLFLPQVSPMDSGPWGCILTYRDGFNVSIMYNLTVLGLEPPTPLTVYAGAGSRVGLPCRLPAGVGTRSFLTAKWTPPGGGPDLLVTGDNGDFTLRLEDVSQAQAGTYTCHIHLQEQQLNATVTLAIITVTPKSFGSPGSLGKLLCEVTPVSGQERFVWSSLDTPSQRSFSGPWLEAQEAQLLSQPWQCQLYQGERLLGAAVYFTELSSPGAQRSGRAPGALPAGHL
Description: ELISA, human LAG3-mFc coated 2 ug/mL. As for the experimental part:
Then the ELISA plate coated with the antigen was washed once with PBST and then blocked with a PBS solution containing 1% BSA as a blocking solution at 37° C. for 2 h. After blocking, the ELISA plate was washed 3 times with PBST. The ELISA plate containing the test antibodies was incubated at 37° C. for 30 min and then washed 3 times with PBST. After washing, a working solution of an HRP-labeled goat anti-human IgG (H+L) (Jackson, Cat. No. 109-035-088) secondary antibody diluted at a ratio of 1:5000 was added, and then the plate was incubated at 37° C. for 30 min. After incubation, the plate was washed 4 times with PBST, TMB (Neogen, 308177) was added for chromogenesis in the dark for 5 min, and then a stop solution was added to terminate the chromogenic reaction. The ELISA plate was put into an ELISA plate reader immediately, and the OD value of each well in the ELISA plate was read at 450 nm. The data were analyzed and processed by SoftMax Pro 6.2.1.
(In an ELISA, binding on a coated surface is turned into a signal by an enzyme label.)

Assay [3] concerns the target T2, human LAG3-mFc. The assay can be described thus: competitive flow cytometry: antibody titrated against 3 nM LAG3-mFc binding to MHC II on Raji cells. As to the method: Raji cells (medium: 1640+10% FBS) (Cell Resource Center, Shanghai Institutes for Biological Sciences, Chinese Academy of Sciences, Cat. No. TCHu 44) were added into EP tubes at 300,000 cells per sample. 1000 μL of 1% PBSA (PBS containing 1% BSA) was added. The mixture was centrifuged at 600×g for 5 min, and the supernatant was discarded. […] The mixture was mixed well and pre-incubated on ice for 30 min. 100 μL of the pre-incubated mixture of antibody and protein was added to the sample. The mixture was mixed well and incubated on ice in the dark for 1 h; 200 μL of 1% PBSA was added, and the mixture was centrifuged at 600×g for 5 min, followed by removal of the supernatant, and then washed twice; 100 μL of an APC anti mouse antibody (purchased from Biolegend, Cat. No. 405308) (diluted at a 1:400 ratio) was added, and the mixture was mixed well and incubated on ice in the dark for 40 min; 200 μL of 1% PBSA was added, and the mixture was centrifuged at 600×g for 5 min, followed by removal of the supernatant; 200 μL of Washing Buffer was added into each tube to resuspend the cells, and then the suspension was transferred to a sample loading tube for testing on a flow cytometer.

B1: H7L9(hG4WT) (antibody, human IgG4 S228P, kappa, V domains shown)
VH: QVQLQQWGAGLLKPSETLSLTCAVYGGSISDYYWNWIRQPPGKGLEWIGEINHRGTTNSNPSLKSRVTLSLDTSKNQFSLKLRSVTAADTAVYYCAFGYSDYEYDWFDPWGQGTLVTVSS
VL: EIVLTQSPATLSLSPGERATLSCRASQTISSYLAWYQQKPGQAPRLLIYDGSNRATGIPARFSGSGSGTDFTLTISSLEPEDFAVYYCQQRSNWPLTFGQGTNLEIKR
notes: Humanized anti-LAG3 IgG4 (Ig gamma-4 chain C region) with human kappa constant region
The term EC50 denotes the concentration giving half of the maximal effect. A higher EC50 goes with a need for much substance. As to B1, the EC50 was found to be 4.81 nM in assay [1], 0.142 nM with human LAG3-mFc [2] and 1.32 nM in the assay with human LAG3-mFc [3].

B2: H7L10(hG4WT) (antibody, human IgG4 S228P, kappa, V domains shown)
VH: B1 VH
VL: B1 VL with T28S, L96I
notes: as for B1
For B2, the values for the EC50 (in assay [1]; with human LAG3-mFc [2]; in the assay with human LAG3-mFc [3]) were 4.17 nM, 0.157 nM and 1.27 nM, respectively.
